The text below walks through data of a protein production outcome set (Wang et al. 2014).

This data set is described as follows: label from the status in PepcDB records.

With “MSTLRATETHRASQSAWEVFLVFLRLGLTSFGGPVAHLGYFRDAFVTRRRWLTEHAYSDIVALCQFLPGPASSQVGMVVGLSRAGYPGALAAWVGFTLPSAIALILFALGLSHYGNLVPPSALHGLKVAAVAVVAQAVWGMARSLCPDAPRITLMILAAVAVTLIPSPWCQVGVMVVAGMVGAQRFRTAQVPPHEPLSIPVGHGAAIGFLLLFAGLLAGLPVVASLIPNHALALVDAFYRAGALVFGGGHVVLPLLQATVVPTGWVNNDTFLAGYGAAQAVPGPLFTFAAFLGAAGGPAPTGWIGGIVCLLAIFAPSFLLVFGALPFWERLRRHAGTRAALAGVNAAVVGLLLSALYQPVWTSAIHAPADFALALLALAALTVWRVPPWAVVTGCALAGWGMHVGGVA”, the protein production result is reported as “failed”.

In the case of “MSTMTATSGRAKRPQKPITLVGVDVYVITEDGIPKFDEYGPFKIEFISNRGTKVWPGYVSPDLMLVNWYRCRFTATRPVTDKDVDAFVGELGKKHLWSAVQKLWNYGDEAGFSKAY”, the protein production entry is “failed”.

Consider “MSTPAPEQMLSAWQVGIAALLILVNGALSIGLGLGLERRLAWAAVRTVVQLLLIGFVLQWVFASAHWAVVLAVIALMTLIAGHATGSRGARDYAGLRLDGTLSVFGSTWLIGAIGLVAVLQARPWYTPQYAIPIMGMILGNTLTGVGLALERMTGELIATRDQVETLLALGGTRWEAARNAARAAVRAGMTPIINQMSVVGVVSLPGMMTGQVLAGQSPLEAVRYQIVIMFLLAASSGLGTVAAVLLAYRRLFSREHQLLSARIVQRAPGVH”, for which the protein production entry is given as “failed”.

Regarding “MSTTDNAFSATLEPIDTPKTTLKQRWWHIMDNWKVGIVPLPLFLLAGGLIALDCLGGKLPSDIVVMVATLAFFGFACGEFGKRLPVLGKLGAAAICATFIPSALVHYGLLPDVVIESTTKFYKSTNILYLYICCIIVGSIMSMNRTTLIQGFLKIFFPMLCGEVVGMLVGIGVGTLLGMEPFQVFFFIVLPIMAGGVGEGAIPLSMGYAALMHMEQGVALGRVLPMVMLGSLTAIVISGCLNQLGKRFPHLTGEGQLMPNRSHETRSLSESEGVSGKTDVGTLASGALLAVLLYMMGMLGHKLIGLPAPVGMLFLAVLLKLANVVSPRLQEGSQMVYKFFRTAVTYPILFAVGVAITPWQELVNAFTLTNLLVIVSTVSALVATGFLVGKKIGMHPIDVAIVSCCQSGQGGTGDVAILTAGNRMSLMPFAQIATRIGGAINVSLGLLFLSHYLA”, the protein production result is “failed”.

“MSTTGKNTTAAATDTVTERPPVFSVDGLWKVFGPKAARVPADPDLTALSPAELRSRTGCTAAVADVSFDVRKGEVFVVMGLSGSGKSTLVRCLTRLIEPTAGSIVIDGEDVRAMDRSRLRELRRHRAAMVFQHFGLLPHRTVLDNVAYGLEVQGMGRAERRERAAAIVAKVGLEGLEQRRPGQLSGGQRQRVGLARALAVDPEVLLFDEPFSALDPLIRRDMQEEVVRLHREEGRTMVFITHDLQEALKLGDRIALMRDGRVVQLGTPEEIVGSPADDYVREFVRDVPREQVLTVRTAMRPAANADEAGTGPAIRPEATVSEAIEAVARAGSAARVMSDGRCLGVVDAADLLSVVAGTAAAGSRAAGAARVGAAATGERREPTDPRPATTEEPV”: the protein production entry is recorded as “failed”.

As for “MSTTLLRTIQLNQFSLLGTSLLRRRRSNNFSVRSCGSQTTTTHEAKQSSPTRVAPKNHKSNQLDEILRDYEAVIGIETHVQLSTLTKAFCSCSNNYGSYPNTSICPVCMGLPGALPVLNSKVVEFGVRLGLALNCDLSLKSKFDRKQYFYPDLPKGYQISQFDIPIASGGYVDVDIPLEFGGGHRRFGITRVHMEEDAGKLLHSDTGDYSQVDLNRAGVPLLEIVSEPDMRSGIEAAEYACEMQRIARYLGVSNGNMQEGSLRCDVNISIRPIGQAEFGTKVEIKNLNAFSAISRAIDFEISRQALLYNQGKADQIVTETRLWEEGAQKTVTMRKKEGLADYRYFPEPDLPEVILTQEYVDSIRASLPELPEAKRRRYEAMGLGMQDVLFLANDVSVAEYFDAVIGKGAEVKLAANWIMSDIAAYLKNEKLSINDIKLTPQELAELIAAIKDGTISGKIGKEILFELLAKGGTVKGMIKAKDLVQITDPAEIEKMVIQVVSENPKQLEQYRSGKTKLQGYFAGQVMKMSKGKANPGLLNKILLEKLNAKD”, the protein production entry is “failed”.

In the case of “MSTVAFHTLGCKVNHYETEAIWQLFKQGGYERTEYEKKADVYVINTCTVTNTGDKKSRQVIRRAVRQNPDAVICVTGCYAQTSPAEIMAIPGVDIVVGTQDREKMLGYIEEFRKERQPINAVRNIMKTRVYEELDVPYFTDRTRASLKIQEGCNNFCTFCIIPWARGLMRSRDGKEVIKQAQQLVDAGYKEIVLTGIHTGGYGEDIKDYNLAGLLRDMEAEVGGLKRLRISSIEASQISDEVIEVLDKSEVVVRHLHIPLQSGSNTVLKRMRRKYTMEFFQERLDRLKEALPGLAITSDVIVGFPGETEEEFMETYNFIKENRFSELHVFPYSKRTGTPAARMEDQVPEDVKNDRVHRLIELSNQLAKEYASQFEGEVLEIIPEEQFKEGDREGLYVGYTDNYLKIVFEGSEELIGKLVKVKITKAGYPYNEAQFVRVLEDDVKKESASALEHHHHHH”, the protein production entry is recorded as “failed”.

Turning to “MSTVRSIYYRGSLEHCNYTCSYCPFGRKSVSADTTEDQEALDRFISRIGGWKYGSLRILIIPYGEAMIHRYYREGIMRLAAMPHVIGVSCQTNLSFSVSRFLDEAEAEQADVSKFRFWASYHPEMVGVGEFASKVEMLRAAGIGVCAGAVGDPSAKEQIRKLRQLLDPSVYLFVNAMQGLRKPLSEEDIRFFGEIDNLFDYDRRNAKACLDGCVGGRETLFIDRKGDMYACPRSGIRMGNFYDDSTSDFQPFCLRKVCDCYIAFSNLCDTPLRRMMGDGALWRIPERKKVEAVFFDVDGTLTDAQGRIPDRTVSVLEYMAKRLPLYLSTALPVSHAKKRLGNVFGLFSGGVFADGGLLCYGETIECVPIANPMTAGFPGCRVTRYTREGKVFKYAVLAPNTREAVRWLTELDEEAYQLYQEGRLLTVVDSKASKKNGLITLCARLGISLREVLVVGNTMHDWPMMSVAGYSCAVMDAEEKLRKLSGYVLNPDSIPVFFDILEHHHHHH”, the protein production result is reported as “failed”.

“MSVCPTNFDEKVECPFVDRKEFTEAFEKAFNNIDQQNYSILVYYGVAGIGKTSLRKELPALLEKHNESDLHTRVIWTSIDFATEQYKQPYKFLEVLSSQLRQKYNVKFNSFDIALATYWKKINPHNPLVKENYSEGSIVHDILDVCDEFVPANLIPNVYNLTKNLPKHYQKWVLKREEDISGLQNLEPTEIYKRLPVYLAHDLADHLQNTSELAVIFIDTYEALWEKERDKGSFNSRDEWLRKLIEKIQKSCLWVICGKESLRWEEVDEDWKNYLDQRKIGKLPEKDALDLLKQCGITEEDIQNVLIESSEGVPYYLELSIDIYRKIKKKKQPTPENFAKVPEGIFCRFVKYLDREEKETLKVLSVPRYWNRELFKILVEKFNTGYPATSFSELHSFSFMDVDDKGKCSMHQLMRKSLKDYQDQDLKKEVHNFMLDFYSNQLKDIDIKEITPEHEIALTEAFYHAKEALEAEDLLKWFISVSDPFNRAAFWQLITPMYEEMLQILEAKHGPEHKDIVTTLNILDVLYYKMGEYKKALQFSERALAIGETILGVQHPDVATSLDNLAGLYESMGNYKQALQLSERALEIYEKVLGPQHRDVAITLDNLAGLYESMGEYEKALIFYQRTIEIKEKVLGPQHSNFATSLDNLAVLYRQMGEYEKALQLSQRALEIYEKVLGPQHPDIATTLNNIALLYDSMGDYQKTLPLYQRALEINEKVFGPQYLGIATTLNNLAGFYRRVGDYEKALSLSQRSLEIDEKVLGSQHPDVARTLNSLALIYENIGDYEKALAFYQRSLDIREKVLGPQHPDVGRTLNNLARLYEIMGDHEKALTLYQRTIEIKEKALGPQHPDVATILNNLAGLHYRIGEYKKALPLYQRALDIVEKKLGQNQPNSVVIKNNYNRLLSKMSENEKK”: the protein production entry was “failed”.

For “MSVEIKRVDKHHCLDLVGIFIELERYYFGDKAASEQDLANYLSHQVFSEHSGVKVIAAVEHDKVLGFATYTIMFPAPKLSGQMYMKDLFVSSSARGKGIGLQLMKHLATIAITHNCQRLDWTAESTNPTAGKFYKSIGASLIREKEYYRFEGNGLNKLAKSL”, the protein production entry is reported as “not failed”.
